T1: recombinant human RANTES (huRANTES, Peprotech) (human, UniProt P13501 24-91)
T1 sequence: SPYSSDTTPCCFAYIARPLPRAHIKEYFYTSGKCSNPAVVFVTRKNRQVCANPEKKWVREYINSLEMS

T2: native human RANTES produced by THP1 cells (human, UniProt P13501 24-91)
T2 sequence: T1 sequence

T3: huRANTES immobilized on glycosaminoglycan (biotin labeled heparin) (human, UniProt P13501 24-91)
T3 construct: also called huRANTES immobilized on GAG; huRANTES in the context of GAG
T3 sequence: T1 sequence

B1: G2 scFv (scFv)
chain: QVQLVQSGAEVKKPGASVKVSCRASGYALTELSIHWVRQAPGKGLEWMGGFDPEDGETIYAQNFQGRVIMTEDTSTDTAYMELSSLKSEDTAVYYCATDLTGSRDSWGQGTLVTVSSQSVLTQPASVSGSPGQSITISCTGSRSDIGYYNYVSWYQQHPGKVPKLIIYDVTERPSGVSDRFSGSKSANTASLTISGLQAEDEADYYCSSFSSGDTFVVFGGGTKLTVL
B2: H6 scFv (scFv)
chain: QVQLVQSGAEVKRPGASVKVSCKVSGNTLSKQSMHWVRQAPGKGFEWMGSSNPEDDETLYAKKFQGRVTMTEDTSTDTAYLELSSLRSEDTAVYYCATDSQGFYYYYGMDVWGQGTLVTVSSQSVLTQPPSVSGAPGQRVTISCTGSSSNIGADYDVHWYQQLPGTVPKLLIYDNINRPSGVPDRFSGSKSGTSASLAITGLQAEDEADYYCQSYDSSLSGVLFGGGTKVTVL
B3: E10 scFv (scFv)
chain: QVQLVESGGGVVQPGRSLRLSCAASGFTFSSYAMHWVRQAPGKGLEWVAVISYDGSNKYYADSVKGRFSISRDNSKNTLYLQMNSLRAEDTAVYYCARETFPHYYYYYMDVWGKGTMVTVSSSYVLTQPPSVSVAPGQTARISCGGGNFDDEGVHWYQQTPGQAPVLVVYDDTGRPSGIPERFSGSSSGNTATLTISRVEAGDEADYYCQAWDSSNDHPVFGGGTQLTVL
B4: 2D1 scFv (scFv)
chain: QVQLVQSGAEVKKPGASVKVSCKVSGYTLNDFAMHWVRQAPGKGLEWMGGYVPEDGDTIYAQKFQGRVTMTEDTSTDTAYMELSSLRSEDTAVYYCATDPLYSGSLSYWGQGTTVTVSSSYVLTQPPSVSVAPGQTARITCGGNNIESKSVHWYQQKPGQAPVLVVYDDSDRPSGIPERFSGSNSGNTATLTISRVEAGDEADYYCQVWDSNTDHWVFGGGTKVTVL
B5: D1 antibody, IgG1 format (antibody, V domains shown)
VH: EVQLVQSGPEVKKPGATVKISCNVSAETFTDYYIHWVKQAPGRGLEWMGLVDSEEDGETLFAETFRGRVALTADRSTNTAYMELRSLRHDDTAVYYCAAEYGEYGFFQSWGQGTLVTVSS
VL: QSVLTQPPSVSGAPGQRVTISCTGSSSNIGADYDVNWYQQLPGTSPKLLIYGDINRPSGVPDRFSASKSGTSASLAITGLQAEDEADYYCQSFDNSLSGSVIFGGGTKLTVL
B6: A9 antibody, IgG1 format (antibody, V domains shown)
VH: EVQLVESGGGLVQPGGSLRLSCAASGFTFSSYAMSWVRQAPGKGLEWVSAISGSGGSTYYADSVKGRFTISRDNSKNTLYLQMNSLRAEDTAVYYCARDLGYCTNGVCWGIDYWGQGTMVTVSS
VL: NFMLTQPHSVSESPGKTVTISCTRSSGSIADNYVQWYQQRPGSAPTTIIYDDDQRLSGVPDRFSGSIDTSSNSASLSISGLRTEDEADYYCQSYDDSNDVFGGGTKLTVL
B7: H11 antibody, IgG1 format (antibody, V domains shown)
VH: QVQLVQSGAEVKKPGSSVKVSCKASGGISDNYALSWVRQAPGQGLEWMGGFIPLVDTTNYAQRFQGRLTITADDSMSTVYMELRSLRSDDTAMYYCAREQVAVGPGPTSDRGPDGLDVWGQGTMVTVSS
VL: QSVLTQPSSVSGAPGHRVTISCTGSNSNLGADYDVHWYQQLPGSAPKLLIYDNNIRPSGVPARFSGSKSGTSASLAITGLQAEDEADYYCQSYDTGLTSSDVIFGGGTKLTVL
B8: CG11 antibody, IgG1 format (antibody, V domains shown)
VH: QVQLVQSGTEVKKPGATVNVSCKISGHLFTDYYIHWVQQAPGKGLEWVGLIDPKDGEIQYAEKFQARVTITADTSTDTVYMELNSLRSEDTAVYYCATEVLSGIRVFPFDPWGQGTLVTVSS
VL: QSVLTQPPSVSGAPGQRVTISCTGSSSNIGAGYDVYWYQQFPGKAPKLLIYDTNNRPPGVPDRFSGSKSGTSASLAISGLQTEDEADYYCQSYDIALSNSNVVFGGGTKLTVL
B9: 1D9 antibody, IgG1 format (antibody, V domains shown)
VH: QVQLVQSGAEVKKPGASVKVSCKVSGYTLTEFAMHWVRQAPGKGLEWMGGFVPEDGETIYAQKFQGRVTMTEDTSTDTAYMELSSLRSEDTAVYYCATDPLYTPGLEPWGQGTTVTVSS
VL: SYVLTQPPSVSVAPGQTARITCGGNNIESKSVHWYQQKPGQAPVLVVYDDSDRPSGIPERFSGSNSGNTATLTISRVEAGDEADYYCQVWDSNTDHWVFGGGTKLTVLG
B10: E7 antibody, IgG1 format (antibody, V domains shown)
VH: QVQLVQSGAEVKKPGSSVKVSCKISGGISDNYALSWVRQAPGQGLEWMGAVIPLVETTSYAQRFQGRLTITADDSLNTLYMELGSLRSDDTAMYYCAREQVAVGPGPTSNRGPDGLDVWGRGTMVTVSS
VL: QSVLTQPPSVSGAPGQRVTISCTGSSSNIGDGYDVHWYQQLPGTAPKLLIYGNSNRPSGVPDRFSGSTSGTSASLAIRGLQSEDEADYYCGTWDDILNGWVFGGGTKLTVL
B11: C8 antibody, IgG1 format (antibody, V domains shown)
VH: QVQLVESGGGVVQPGRSLRLSCAASGFTFSSYAMHWVRQAPGKGLEWVAVISYDGSNKYYADSVKGRFTISRDNSKNTLYLQMNSLRAEDTAVYYCARETFPHYYYYYMDVWGRGTLVTVSS
VL: SYVLTQPPSVSVAPGQTARITCEGDDTDIGTVNWYQQKPGQAPVLVISEDGYRPSGIPERFSGSNSGNTATLTISRVEAGDEADYYCQFWDVDSDHPVFGGGTQLTVLG
B12: H6 antibody, IgG1 format (antibody, V domains shown)
VH: QVQLVQSGAEVKRPGASVKVSCKVSGNTLSKQSMHWVRQAPGKGFEWMGSSNPEDDETLYAKKFQGRVTMTEDTSTDTAYLELSSLRSEDTAVYYCATDSQGFYYYYGMDVWGQGTLVTVSS
VL: QSVLTQPPSVSGAPGQRVTISCTGSSSNIGADYDVHWYQQLPGTVPKLLIYDNINRPSGVPDRFSGSKSGTSASLAITGLQAEDEADYYCQSYDSSLSGVLFGGGTKVTVL

target: T1, recombinant human RANTES (huRANTES, …); assay: cell-based or functional assay

Chemotaxis IC50 (nM); L1.2 cells expressing hCCR5, 1 nM huRANTES; scFv format [nM] | Binder
62 | B1
25 | B2
9.4 | B3
1.3 | B4

target: T1, recombinant human RANTES (huRANTES, …); assay: cell-based or functional assay; remark: another data set of the same source

Chemotaxis IC50 (nM), 1 nM huRANTES; L1.2-hCCR5 cells; IgG1 format [nM] | Calcium Flux IC50 (nM), 10 nM rhuRANTES; L1.2-hCCR5 cells; IgG1 format [nM] | Chemotaxis IC50 (nM), 0.2 nM huRANTES; L1.2-hCCR5 cells; IgG1 format [nM] | Binder
7 | – | – | B5
1 | 3.3 | – | B6
1.3 | – | – | B7
4.8 | 9.5 | – | B8
0.35 | – | 0.038 | B9
2.2 | – | – | B10
2.1 | – | 0.49 | B11
8.7 | 9 | – | B12

target: T2, native human RANTES produced by THP1 …; assay: cell-based or functional assay

Chemotaxis IC50 (nM), native huRANTES from THP1 cells; L1.2-hCCR5 cells; IgG1 format [nM] | Binder
0.033 | B9
1.6 | B11

target: T3, huRANTES immobilized on …; assay: ELISA: biotin-heparin on streptavidin plate, huRANTES captured on the heparin, IgG detected with anti-human IgG Fc-HRP, OD450; antibody concentration not given

binding result | Binder
no binding | B5
no binding | B6
no binding | B7
no binding | B8
no binding | B10
no binding | B12

From patent publication US20120201826A1 (NOV IMMUNE S A, published 2012)
